Results taken from US20130115220A1, “METHOD FOR PREVENTION OR TREATMENT OF METABOLIC SYNDROME” (DAINIPPON SUMITOMO PHARMA CO., LTD., priority 2010, published 2013).

Legend:
FAS [1] = biological target: T1, FAS (Mus musculus, UniProt P19096); assay: FAS enzyme activity of treated 3T3-L1 adipocytes; format: cell-based; set-up: endogenous in cells; host or cells: 3T3-L1 adipocytes (treated cells, then lysed); conditions: 3T3-L1 adipocytes, rAIM 5 μg/ml, 6 days
Procedure: (§1) The influence of AIM on FAS activity of adipocyte or adipose tissue was examined. FAS activity was measured by the method of Kelley (Kelley et al., Biochem. J., 1986, 235:87-90) with slight modification. 3T3-L1 adipocytes, or lysates of adipose tissue of obese mice was mixed with acetyl-CoA and NADPH (0.2 M […] phosphate buffer [pH 7.0] containing 0.4 mM EDTA), and the mixture was placed in a spectrophotometer cuvette and maintained at 30° C. 20 μl of malonyl-CoA solution (0.2 mM) was added to start an enzyme reaction and decrease of OD was measured at a chart speed 2 cm/min. Based on the results, the enzyme activity of FAS was evaluated using the molar extinction coefficient of […] NADPH as 6220.
(§2) First, the FAS activity of 3T3-L1 cells treated for 6 days in the presence or absence of rAIM (5 μg/ml), and in the presence of C75 (25 μM) was measured. Moreover, the FAS activity of adipose tissues of AIM^+/+ mice and AIM^−/− mice and the FAS activity of adipose tissue of AIM^−/− mice administered with rAIM or BSA 3 hr before by intraadipose topical injection are shown in FIGS. 28 and 29, respectively.
(§3) All mice were fed with HFD for 20 weeks. The samples were dissolved (lysed) and the FAS activity was measured. The data was converted to that based on FAS protein, according to the results of WB performed using the same sample.

AIM-/- mice = assay: mRNA level of markers in visceral fat tissue by QPCR; format: in vivo, mouse; conditions: rAIM administration group relative to BSA group, standardized with GAPDH
Procedure: The mRNA level of adipocyte marker, preadipocyte marker, and lipid droplet formation-related genes in the RNA extracted from visceral fat tissue of the mice of the rAIM administration group and BSA administration group was measured by QPCR. The measurement values were standardized with the measurement values of GAPDH, and shown by an expression level relative to that of the adipose tissue administered with BSA.

3T3-L1 cells [2] = assay: Expression of adipocyte markers by quantitative real-time PCR; format: cell-based, mouse; conditions: day 12
Procedure: The cells cultured in schedules A-D shown in FIG. 13 were recovered on day 10 from the start of the differentiation induction stimulation (day 12), and expression of adipocyte markers (C/EBPα, PPARγ1, PPARγ2, CD36, Glut4) at mRNA level was measured using 7500 Fast Real-Time PCR system (Invitrogen; CA, USA) by ΔΔCT method.

FAS [3] = biological target: T1, FAS; assay: FAS activity of adipose tissue of AIM-/- mice after intraadipose topical injection; format: in vivo; set-up: endogenous in cells; host or cells: 3T3-L1 adipocytes (treated cells, then lysed); conditions: AIM-/- mice fed HFD 20 weeks, rAIM injected into adipose 3 hr before, versus BSA
Procedure: as §1, §2, §3

3T3-L1 adipocytes = assay: Glycerol and free fatty acid released in culture supernatant; format: cell-based, mouse; conditions: rAIM 5 μg/ml, day 2, day 4, day 6
Procedure: rAIM was loaded (5 μg/ml) on 3T3-L1 adipocytes, the amount of glycerol or free fatty acid released in the culture supernatant was measured on day 2, day 4, and day 6. After rAIM loading, the cells were washed twice with PBS, and incubated in a serum-free medium (FreeStyle™ 293 Expression Medium; Invitrogen) for 5 hr. The buffer was recovered, and the measurement was performed using a glycerol assay kit and a fatty acid assay kit (both Bio Vision Inc.) and according to the manual.

3T3-L1 cells [4] = assay: rAIM uptake into 3T3-L1 cells by staining; format: cell-based, mouse
Procedure: Differentiated 3T3-L1 cells (ins/DEX/IBMX stimulation (+)) and undifferentiated 3T3-L1 cells (ins/DEX/IBMX stimulation (−)) were incubated with rAIM (5 μg/ml) for 3 hr, and stained with AIM, PPARγ2, and DAPI. For staining with PPARγ2, a rabbit anti-PPARγ2 polyclonal antibody (Abcam plc) was used.
In addition, 3T3-L1 adipocytes were treated with rAIM for 3 hr, stained with AIM and endosome (FM 1-43FX (Invitrogen Corporation) was used), AIM and lysosome (Lyso Tracker Red DND-99 (Invitrogen Corporation) was used), and observed under a confocal microscope.

T1 sequence (P19096 whole entry): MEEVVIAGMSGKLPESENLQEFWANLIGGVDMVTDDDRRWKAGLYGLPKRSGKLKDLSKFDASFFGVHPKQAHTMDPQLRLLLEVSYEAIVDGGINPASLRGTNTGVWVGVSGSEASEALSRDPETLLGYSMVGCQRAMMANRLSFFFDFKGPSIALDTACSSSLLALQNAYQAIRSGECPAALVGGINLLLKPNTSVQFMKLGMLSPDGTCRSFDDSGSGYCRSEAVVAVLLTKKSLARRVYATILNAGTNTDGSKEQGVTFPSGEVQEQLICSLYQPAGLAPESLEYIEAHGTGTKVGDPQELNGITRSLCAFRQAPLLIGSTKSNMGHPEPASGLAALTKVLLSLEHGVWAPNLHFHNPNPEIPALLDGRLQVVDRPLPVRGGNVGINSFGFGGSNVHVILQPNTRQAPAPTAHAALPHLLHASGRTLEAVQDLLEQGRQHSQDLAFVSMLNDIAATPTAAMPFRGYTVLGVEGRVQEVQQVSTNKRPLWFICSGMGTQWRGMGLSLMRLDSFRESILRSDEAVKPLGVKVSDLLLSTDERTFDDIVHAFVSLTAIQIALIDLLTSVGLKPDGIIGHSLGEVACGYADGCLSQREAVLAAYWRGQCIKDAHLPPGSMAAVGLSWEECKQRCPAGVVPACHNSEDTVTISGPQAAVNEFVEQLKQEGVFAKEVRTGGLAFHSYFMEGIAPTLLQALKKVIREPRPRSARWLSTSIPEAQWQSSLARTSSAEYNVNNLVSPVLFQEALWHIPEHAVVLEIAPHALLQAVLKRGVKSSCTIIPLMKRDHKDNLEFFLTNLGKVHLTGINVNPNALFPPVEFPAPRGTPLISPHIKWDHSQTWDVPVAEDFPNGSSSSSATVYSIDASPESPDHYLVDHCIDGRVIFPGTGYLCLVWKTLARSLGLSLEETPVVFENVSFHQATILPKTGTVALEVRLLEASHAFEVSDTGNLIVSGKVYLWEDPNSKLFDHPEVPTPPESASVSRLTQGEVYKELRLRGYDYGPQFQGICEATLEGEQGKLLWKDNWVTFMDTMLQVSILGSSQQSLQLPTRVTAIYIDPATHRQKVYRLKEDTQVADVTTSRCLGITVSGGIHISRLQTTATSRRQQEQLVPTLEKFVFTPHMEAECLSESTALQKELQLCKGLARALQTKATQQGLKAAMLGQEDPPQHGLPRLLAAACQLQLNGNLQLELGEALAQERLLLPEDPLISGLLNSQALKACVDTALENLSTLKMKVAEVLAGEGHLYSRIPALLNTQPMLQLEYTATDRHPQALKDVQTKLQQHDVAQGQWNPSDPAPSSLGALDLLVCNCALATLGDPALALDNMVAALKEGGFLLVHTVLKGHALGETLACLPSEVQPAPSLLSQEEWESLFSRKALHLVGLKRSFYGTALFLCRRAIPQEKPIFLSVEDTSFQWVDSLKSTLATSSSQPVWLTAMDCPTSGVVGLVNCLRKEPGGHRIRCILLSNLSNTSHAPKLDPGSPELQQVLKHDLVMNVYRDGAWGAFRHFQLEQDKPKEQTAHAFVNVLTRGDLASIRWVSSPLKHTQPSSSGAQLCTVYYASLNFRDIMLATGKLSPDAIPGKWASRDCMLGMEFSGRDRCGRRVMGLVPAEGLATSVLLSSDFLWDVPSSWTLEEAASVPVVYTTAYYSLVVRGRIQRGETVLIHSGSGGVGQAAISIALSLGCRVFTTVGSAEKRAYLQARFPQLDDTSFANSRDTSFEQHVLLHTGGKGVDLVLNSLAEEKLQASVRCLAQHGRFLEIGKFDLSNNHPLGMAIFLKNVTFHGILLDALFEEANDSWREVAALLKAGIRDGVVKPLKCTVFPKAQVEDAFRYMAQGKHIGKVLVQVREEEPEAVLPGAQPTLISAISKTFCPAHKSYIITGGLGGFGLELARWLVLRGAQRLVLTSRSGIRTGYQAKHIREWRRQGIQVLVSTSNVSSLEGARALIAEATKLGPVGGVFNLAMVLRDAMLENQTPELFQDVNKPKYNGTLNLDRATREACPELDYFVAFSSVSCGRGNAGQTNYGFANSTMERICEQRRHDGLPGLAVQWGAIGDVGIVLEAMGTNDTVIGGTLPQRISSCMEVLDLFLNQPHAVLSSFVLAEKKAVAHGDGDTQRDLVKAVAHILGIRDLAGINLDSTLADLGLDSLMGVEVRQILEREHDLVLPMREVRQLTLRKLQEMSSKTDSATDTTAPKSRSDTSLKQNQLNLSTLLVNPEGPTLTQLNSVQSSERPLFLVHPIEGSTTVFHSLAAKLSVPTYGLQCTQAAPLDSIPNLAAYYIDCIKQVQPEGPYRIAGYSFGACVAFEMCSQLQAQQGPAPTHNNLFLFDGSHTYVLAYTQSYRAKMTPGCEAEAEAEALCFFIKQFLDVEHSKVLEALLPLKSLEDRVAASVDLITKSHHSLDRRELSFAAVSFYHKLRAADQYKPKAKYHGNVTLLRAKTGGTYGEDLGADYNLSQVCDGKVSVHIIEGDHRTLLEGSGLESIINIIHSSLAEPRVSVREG

B1: rAIM: recombinant AIM protein (rAIM) of mouse, HA-tagged, prepared in HEK293T cells (protein)
chain: ESPTKVQLVGGAHRCEGRVEVEHNGQWGTVCDDGWDRRDVAVVCRELNCGAVIQTPRGASYQPPASEQRVLIQGVDCNGTEDTLAQCELNYYVFDCSHEEDAGAQCENPDSDLLFIPEDVRLVDGPGHCQGRVEVLHQSQWSTVCKAGWNLQVSKVVCRQLGCGRALLTYGSCNKNTQGKGPIWMGKMSCSGQEANLRSCLLSRLENNCTHGEDTWMECEDPFELKLVGGDTPCSGRLEVLHKGSWGSVCDDNWGEKEDQVVCKQLGCGKSLHPSPKTRKIYGPGAGRIWLDDVNCSGKEQSLEFCRHRLWGYHDCTHKEDVEVICTDFDV
modifications: left off: small tags and cut ends
notes: recombinant AIM protein (rAIM) of mouse, HA-tagged, prepared in HEK293T cells
FAS activity (FAS [1]): markedly suppressed
mRNA level of Adipophilin in visceral fat (AIM-/- mice): low
mRNA level of FSP27 in visceral fat (AIM-/- mice): low
mRNA level of PREF-1 in visceral fat (AIM-/- mice): increased
mRNA level of Perilipin in visceral fat (AIM-/- mice): low
mRNA of C/EBPα in visceral fat (AIM-/- mice): did not show difference
mRNA of GLUT4 in visceral fat (AIM-/- mice): did not show difference
mRNA of PPARγ2 in visceral fat (AIM-/- mice): did not show difference
expression of adipocyte markers (C/EBPα, PPARγ1, PPARγ2, CD36, Glut4) mRNA (3T3-L1 cells [2]; schedule B): suppressed
expression of adipocyte markers (C/EBPα, PPARγ1, PPARγ2, CD36, Glut4) mRNA (3T3-L1 cells [2]; schedule D as printed, AIM administered simultaneously with differentiation induction stimulation): suppressed
expression of adipocyte markers (C/EBPα, PPARγ1, PPARγ2, CD36, Glut4) mRNA (3T3-L1 cells [2]; schedule D, AIM only before differentiation induction): expressed
FAS activity in adipose tissue (FAS [3]): decreased
amount of free fatty acids in the culture supernatant (3T3-L1 adipocytes): significantly increased
amount of glycerol in the culture supernatant (3T3-L1 adipocytes): significantly increased
intracellular localization of incorporated rAIM (endosome, lysosome staining) (3T3-L1 cells [4]; 3T3-L1 adipocytes, rAIM 3 hr, confocal microscope): co-localized with endosome
rAIM uptake efficiency (3T3-L1 cells [4]; cells showing low expression of PPARγ2, rAIM 5 μg/ml, 3 hr): markedly low
rAIM uptake (cells containing rAIM per 100 cells) (3T3-L1 cells [4]; mature adipocytes highly expressing PPARγ2, rAIM 5 μg/ml, 3 hr): efficient rAIM uptake
rAIM uptake (3T3-L1 cells [4]; preadipocytes free of differentiation induction stimulation, rAIM 5 μg/ml, 3 hr): no rAIM uptake
